Data published in patent US20170037110A1 (IMMATICS BIOTECHNOLOGIES, published 2017).

Molecular target: T1, HLA-A*02:01 (human)
T1 construct: monomers captured on streptavidin plates; also called MHC class I
Assay: UV peptide exchange ELISA
Procedure, shortened: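 Peptide-MHC complexes formed by UV-triggered exchange of a cleavable peptide for the test peptide, with stabilised complexes indicating binding. Exchange products diluted 100 fold onto streptavidin-coated wells, 1h at 37° C.; HRP anti-β2m (2 μg/ml), TMB, absorbance at 450 nm gives exchange yield.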

Binder	peptide exchange yield [%]
SLLDLETLSL	≥ 75
SLDSTLHAV	50 to 75
ALQDRVPLA	50 to 75
SLSELEALM	50 to 75
KMIETDILQKV	≥ 75
KLYEGIPVLL	≥ 75
YLVEDIQHI	50 to 75
FLDENIGGVAV	50 to 75
VLIDEVESL	50 to 75
LLPDLEFYV	≥ 75
VLMDRLPSLL	≥ 75
IMEDIILTL	50 to 75
ALMYESEKVGV	50 to 75
LLAPTPYIIGV	50 to 75
VLPPDTDPA	20 to 50
KLLNKIYEA	≥ 75
FLQGYQLHL	≥ 75
RLLGEEVVRVLQA	50 to 75
TLAELQPPVQL	50 to 75
VLLDVSAGQLLM	≥ 75
LLLPDQPPYHL	50 to 75
RLLPPGAVVAV	50 to 75
YLLDDGTLVV	≥ 75
ALWKQLLEL	50 to 75
YLLPSGGSVTL	20 to 50
FLLAHGLGFLL	≥ 75
SLLEQGKEPWMV	50 to 75
VLFDSESIGIYV	50 to 75
YAAPGGLIGV	20 to 50
YLYNEGLSV	50 to 75
